Results: publication PMC10724926, “Characterization of an efficient N-oxygenase from Saccharothrix sp. and its application in the synthesis of azomycin” (Biotechnology for Biofuels and Bioproducts, 2023)
Read-outs that look alike come from different tables or passages of the source.

Tests used:
Nc1ncc[nH]1 = assay: purified protein; settings: pH 5.5, 25 °C, 20 min, 10 µM enzyme, 2 mM FeSO4, 50 µM PMS, 5 mM NADH, 20 mM HEPES
SaRohS = tested on: T1, SaRohS; assay: HPLC of azomycin formed, Michaelis-Menten fit; type: biochemical, Saccharothrix sp.; settings: pH 5.5, 25 °C, 20 min, 10 µM enzyme, 2 mM FeSO4, 50 µM PMS, 5 mM NADH, 20 mM HEPES
T1 construct: codon-optimised gene in pETDuet-28a+, E. coli BL21 (DE3), Ni-NTA purified
From the text: HPLC of azomycin formed, Michaelis-Menten fit on SaRohS

Compound	Km (Nc1ncc[nH]1) [µM]	kcat (Nc1ncc[nH]1) [s⁻¹]	kcat/Km (Nc1ncc[nH]1) [M⁻¹ s⁻¹]	Km (SaRohS) [µM]	Km (SaRohS; read-out: G95A/K115T) [µM]	Km (SaRohS; read-out: T75A) [µM]
KaRohS (Kitasatospora azatica)	390.55 ± 0.02	0.00383 ± 8.33e-05	10			
Nc1ncc[nH]1 [2-aminoimidazole]				182.69 ± 0.01	82.68 ± 0.001	924.17 ± 0.1
